Source: article doi:10.1101/2024.08.25.607996 (bioRxiv, 2024)

Molecular target: the molecule itself
Experiment: cryo-EM structure

B1: feline APN ectodomain without the Fc fusion (dimer) (domain or fragment)
chain: DQSKPWNVYRLPKTLIPDSYNVTLRPYLTPNNKGLYVFTGTNIVRFTCKESTNIVIIHSKRLNYTSHQGHMVALSGVGGFHPQPVIVRTELVELTEYLVVHLQEPLVAGRQYEMNSEFQGELADDLAGFYRSEYMENGVKKVLATTHMQATEARKSFPCFDEPAMKATFNITIIHPNNLVALSNMLPRGPSVPFGEDPTWKVTEFETTPIMSTYLLAYIVSEFSYVETRAPSGVLIRIWARPSAINQGHGDYALKVTGPILDFFSQHYDTPYPLNKSDQIALPDFNAGAMENWGLVTYRESALLYDRQSSSSGNQERVVTVIAHELAHQWFGNLVTLEWWNDLWLNEGFASYVEYLGADFAEPTWNLKDLMVLNDVYRVMAVDALASSHPLSTPASEINTPAQISEVFDSISYSKGASVLRMLSNFLTEDLFKMGIASYLHTYKYGNTIYLNLWEHLQQVVDKQPTIKLPDTVSAIMDRWILQMGFPVITVDTQTGTISQQHFLLDPQSVVTRPSQFNYLWIVPISSVRSGSPQAHYWLPGVEKAQNDLFKTTANDWVLLNLNVTGYYLVNYDNENWKKIQTQLQTDLSVIPVINRAQVIHDAFNLASAQKVPVTLALNNTLFLIQETEYMPWQAALSSLSYFKLMFDRSEVYGPMKRYLKKQVTPLFNHFERVTKNWTDHPQTLMDQYSEINAVSTACSYGVPECEKLAATLFAQWKKNPQNNPIHPNLRSTVYCNAIAQGGEEEWNFVWEQFLKAELVNEADKLRGALACSNQVWILNRFLSYTLDPNLIRKQDVTSTLSSISSNVVGQTLVWDFVQSNWKKLFQDYGTGSFSFSNLIQAVTRRFSTEFELQQLEQFKKNNMDTGFGSATRALEQALEKTKANLKWVKENKDVVLRWFTENS
  stoichiometry N: 2
